What was measured:
Experiment in all cases: holdup assay
Parameters in all cases: key: below the threshold = too weak to quantify, mostly under pKd 3.1 to 4
AHNAK1, Q09666 = molecular target: AHNAK1, Q09666
APBA1_1, Q02410 = molecular target: T1, APBA1_1, Q02410
T1 sequence (Q02410 651-752, limits assumed, looked up): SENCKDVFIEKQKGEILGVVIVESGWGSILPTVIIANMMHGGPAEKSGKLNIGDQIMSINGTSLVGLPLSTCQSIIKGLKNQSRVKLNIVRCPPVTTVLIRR

CASK, O14936 = molecular target: CASK, O14936
GORASP1, Q9BQQ3 = molecular target: GORASP1, Q9BQQ3
GRIP1_2, Q9Y3R0 = molecular target: T2, GRIP1_2, Q9Y3R0
T2 sequence (Q9Y3R0 145-248, limits assumed, looked up): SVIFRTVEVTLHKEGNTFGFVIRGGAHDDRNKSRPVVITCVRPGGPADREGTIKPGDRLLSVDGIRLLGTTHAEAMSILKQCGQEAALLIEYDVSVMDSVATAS

GRIP1_7, Q9Y3R0 = molecular target: T3, GRIP1_7, Q9Y3R0
T3 sequence (Q9Y3R0 999-1096, limits assumed, looked up): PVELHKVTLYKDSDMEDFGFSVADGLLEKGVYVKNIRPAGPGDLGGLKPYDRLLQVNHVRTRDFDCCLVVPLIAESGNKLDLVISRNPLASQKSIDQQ

HTRA2, O43464 = molecular target: HTRA2, O43464
Inadl_1, Q8NI35 = details: plain residues with an end cap or a label only (N-terminal biotin on a linker: ahx)
Inadl_8, Q8NI35 = molecular target: Inadl_8, Q8NI35
LIN7B, Q9HAP6 = molecular target: T4, LIN7B, Q9HAP6
T4 sequence (Q9HAP6 88-185, limits assumed, looked up): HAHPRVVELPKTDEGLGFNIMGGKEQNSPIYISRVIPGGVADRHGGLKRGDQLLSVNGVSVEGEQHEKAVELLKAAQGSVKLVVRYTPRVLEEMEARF

LIN7C, Q9NUP9 = molecular target: T5, LIN7C, Q9NUP9
T5 sequence (Q9NUP9 88-185, limits assumed, looked up): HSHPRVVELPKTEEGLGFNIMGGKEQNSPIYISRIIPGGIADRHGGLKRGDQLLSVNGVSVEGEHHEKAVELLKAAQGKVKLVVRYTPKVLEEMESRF

LNX1_1, Q8TBB1 = molecular target: LNX1_1, Q8TBB1
MAGI2_3, Q86UL8 = molecular target: MAGI2_3, Q86UL8
MAGI2_5, Q86UL8 = molecular target: MAGI2_5, Q86UL8
MAGI3_2, Q5TCQ9 = molecular target: MAGI3_2, Q5TCQ9
MAST1, Q9Y2H9 = molecular target: MAST1, Q9Y2H9
MAST2, Q6P0Q8 = molecular target: MAST2, Q6P0Q8
NHERF2_2, Q15599 = molecular target: NHERF2_2, Q15599
NHERF4_1, Q86UT5-2 = molecular target: NHERF4_1, Q86UT5-2
PDLIM1, O00151 = molecular target: PDLIM1, O00151
PTPN3, P26045 = molecular target: PTPN3, P26045
SCRIB_1, Q14160 = molecular target: SCRIB_1, Q14160
SCRIB_2, Q14160 = molecular target: SCRIB_2, Q14160
SCRIB_3, Q14160 = molecular target: SCRIB_3, Q14160
SNTG2, Q9NY99 = molecular target: T6, SNTG2, Q9NY99
T6 sequence (Q9NY99 68-166, limits assumed, looked up): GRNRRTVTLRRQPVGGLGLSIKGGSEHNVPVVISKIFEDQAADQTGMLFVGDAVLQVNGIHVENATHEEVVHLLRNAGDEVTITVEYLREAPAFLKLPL

TJP1_2, Q07157 = molecular target: TJP1_2, Q07157
TJP3_3, O95049 = molecular target: T7, TJP3_3, O95049
T7 sequence (O95049 375-456, limits assumed, looked up): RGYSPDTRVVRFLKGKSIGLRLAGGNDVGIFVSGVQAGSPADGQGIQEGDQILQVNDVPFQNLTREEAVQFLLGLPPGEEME

ARHGEF12, Q9NZN5-2 = details: plain residues with an end cap or a label only (N-terminal biotin on a linker: ttds)
DLG3_3, Q92796 = molecular target: T8, DLG3_3, Q92796; details: plain residues with an end cap or a label only (N-terminal biotin on a linker: ttds)
T8 sequence (Q92796 374-475, limits assumed, looked up): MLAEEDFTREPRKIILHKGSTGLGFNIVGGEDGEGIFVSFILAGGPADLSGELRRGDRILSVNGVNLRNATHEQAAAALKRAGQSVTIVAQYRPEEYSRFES

PARD3_3, Q8TEW0 = details: plain residues with an end cap or a label only (N-terminal biotin on a linker: ttds)
SNX27, Q96L92 = details: plain residues with an end cap or a label only (N-terminal biotin on a linker: ttds)
[1] = plain residues with an end cap or a label only (N-terminal biotin on a linker: ahx)
[2] = plain residues with an end cap or a label only (N-terminal biotin on a linker: ttds)

Sequence of NHERF4_1, Q86UT5-2 (Q86UT5 other isoform, or with tags, fused parts or gaps): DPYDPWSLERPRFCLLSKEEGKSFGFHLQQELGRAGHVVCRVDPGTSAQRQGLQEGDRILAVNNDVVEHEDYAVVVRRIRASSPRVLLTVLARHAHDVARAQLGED
Sequence of NHERF2_2, Q15599 (Q15599 142-238): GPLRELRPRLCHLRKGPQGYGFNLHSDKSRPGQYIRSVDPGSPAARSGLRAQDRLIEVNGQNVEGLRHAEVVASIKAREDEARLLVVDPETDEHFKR
Sequence of SCRIB_3, Q14160 (Q14160 999-1103): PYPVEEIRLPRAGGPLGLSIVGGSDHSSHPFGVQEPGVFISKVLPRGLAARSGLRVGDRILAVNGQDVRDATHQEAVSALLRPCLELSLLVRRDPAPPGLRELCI
Sequence of TJP1_2, Q07157 (Q07157 181-274): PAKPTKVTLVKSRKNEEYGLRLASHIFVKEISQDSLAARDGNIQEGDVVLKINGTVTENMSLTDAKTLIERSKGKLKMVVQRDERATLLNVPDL
Sequence of SCRIB_2, Q14160 (Q14160 857-960): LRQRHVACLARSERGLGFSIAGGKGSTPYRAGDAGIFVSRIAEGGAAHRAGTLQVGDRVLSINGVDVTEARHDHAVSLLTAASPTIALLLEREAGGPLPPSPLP
Sequence of LNX1_1, Q8TBB1 (Q8TBB1 261-371): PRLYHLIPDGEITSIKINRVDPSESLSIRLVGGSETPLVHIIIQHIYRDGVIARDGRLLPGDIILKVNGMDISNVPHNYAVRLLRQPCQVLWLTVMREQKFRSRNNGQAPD
Sequence of MAGI3_2, Q5TCQ9 (Q5TCQ9 398-503): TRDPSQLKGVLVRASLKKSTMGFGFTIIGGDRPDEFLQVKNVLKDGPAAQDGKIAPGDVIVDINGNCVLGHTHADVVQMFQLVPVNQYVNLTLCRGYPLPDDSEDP
Sequence of SCRIB_1, Q14160 (Q14160 718-814): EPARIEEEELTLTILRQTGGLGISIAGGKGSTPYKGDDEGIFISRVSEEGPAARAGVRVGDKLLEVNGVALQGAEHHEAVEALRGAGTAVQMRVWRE
Sequence of GORASP1, Q9BQQ3 (Q9BQQ3 1-208): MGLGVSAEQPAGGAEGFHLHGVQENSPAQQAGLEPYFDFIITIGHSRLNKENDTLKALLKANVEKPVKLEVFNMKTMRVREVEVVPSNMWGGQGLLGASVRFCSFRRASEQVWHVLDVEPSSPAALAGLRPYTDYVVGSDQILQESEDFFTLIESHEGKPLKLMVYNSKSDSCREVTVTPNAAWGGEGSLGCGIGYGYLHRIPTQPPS
Sequence of AHNAK1, Q09666 (Q09666 4-100): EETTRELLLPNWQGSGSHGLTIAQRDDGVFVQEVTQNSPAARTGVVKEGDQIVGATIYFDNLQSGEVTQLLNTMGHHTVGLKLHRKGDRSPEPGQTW
Sequence of HTRA2, O43464 (O43464 355-458): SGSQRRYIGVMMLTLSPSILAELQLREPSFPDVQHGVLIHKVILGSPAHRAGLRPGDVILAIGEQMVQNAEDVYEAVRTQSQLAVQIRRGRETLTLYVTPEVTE
Sequence of MAGI2_3, Q86UL8 (Q86UL8 600-682): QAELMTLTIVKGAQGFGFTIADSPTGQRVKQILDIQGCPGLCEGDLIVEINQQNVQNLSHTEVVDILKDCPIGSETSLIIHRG
Sequence of CASK, O14936 (O14936 487-570): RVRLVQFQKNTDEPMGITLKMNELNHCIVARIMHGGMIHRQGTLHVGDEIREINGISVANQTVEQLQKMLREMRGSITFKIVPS
Sequence of MAGI2_5, Q86UL8 (Q86UL8 915-1017): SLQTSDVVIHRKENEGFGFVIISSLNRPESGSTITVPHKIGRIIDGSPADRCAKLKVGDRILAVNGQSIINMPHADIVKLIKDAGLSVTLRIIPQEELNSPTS
Sequence of MAST2, Q6P0Q8 (Q6P0Q8 1099-1202): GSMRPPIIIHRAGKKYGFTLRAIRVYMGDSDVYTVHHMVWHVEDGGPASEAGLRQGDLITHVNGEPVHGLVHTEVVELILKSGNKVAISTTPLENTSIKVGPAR
Sequence of MAST1, Q9Y2H9 (Q9Y2H9 962-1065): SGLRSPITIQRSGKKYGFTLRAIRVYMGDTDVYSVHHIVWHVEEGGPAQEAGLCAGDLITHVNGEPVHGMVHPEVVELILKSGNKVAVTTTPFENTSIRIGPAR
Sequence of PTPN3, P26045 (P26045 505-587): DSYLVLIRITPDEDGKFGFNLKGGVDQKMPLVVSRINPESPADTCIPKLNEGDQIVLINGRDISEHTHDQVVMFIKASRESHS
Sequence of PDLIM1, O00151 (O00151 1-87): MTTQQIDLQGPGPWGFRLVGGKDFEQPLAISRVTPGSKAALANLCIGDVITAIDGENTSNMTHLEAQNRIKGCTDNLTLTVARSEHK
Sequence of PARD3_3, Q8TEW0 (Q8TEW0 582-685): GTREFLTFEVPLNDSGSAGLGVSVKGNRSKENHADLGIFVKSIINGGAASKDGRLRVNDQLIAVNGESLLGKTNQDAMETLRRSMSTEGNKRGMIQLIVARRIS
Sequence of ARHGEF12, Q9NZN5-2 (Q9NZN5 other isoform, or with tags, fused parts or gaps): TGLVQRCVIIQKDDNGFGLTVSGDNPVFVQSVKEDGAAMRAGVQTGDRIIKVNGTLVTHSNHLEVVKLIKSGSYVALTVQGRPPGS
Sequence of Inadl_8, Q8NI35 (Q8NI35 1425-1530): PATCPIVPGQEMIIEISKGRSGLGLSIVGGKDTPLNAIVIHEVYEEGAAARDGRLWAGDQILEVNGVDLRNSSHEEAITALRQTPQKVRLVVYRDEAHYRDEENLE
Sequence of Inadl_1, Q8NI35 (Q8NI35 113-229): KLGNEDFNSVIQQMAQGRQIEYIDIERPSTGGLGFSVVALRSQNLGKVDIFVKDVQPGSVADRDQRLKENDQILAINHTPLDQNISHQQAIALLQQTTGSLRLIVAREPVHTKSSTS

Question: With LSDPSVSTVV [GRIN1, Q05586;Q05586-2] as the binder, how does the pKd (AHNAK1, Q09666; [1]) read?
Answer: below the threshold

Question: What about the pKd (APBA1_1, Q02410; [1]) of the same binder?
Answer: below the threshold

Question: What about the pKd (CASK, O14936; [1]) of the same binder?
Answer: below the threshold

Question: What about the pKd (GORASP1, Q9BQQ3; [1]) of the same binder?
Answer: below the threshold

Question: And the pKd (GRIP1_2, Q9Y3R0; [1])?
Answer: below the threshold

Question: What about the pKd (GRIP1_7, Q9Y3R0; [1]) of the same binder?
Answer: below the threshold

Question: And the pKd (HTRA2, O43464; [1])?
Answer: below the threshold

Question: And the pKd (Inadl_1, Q8NI35)?
Answer: below the threshold

Question: What about the pKd (Inadl_8, Q8NI35; [1]) of the same binder?
Answer: below the threshold

Question: What about the pKd (LIN7B, Q9HAP6; [1]) of the same binder?
Answer: below the threshold

Question: What about the pKd (LIN7C, Q9NUP9; [1]) of the same binder?
Answer: below the threshold

Question: What about the pKd (LNX1_1, Q8TBB1; [1]) of the same binder?
Answer: 4.17

Question: And the pKd (MAGI2_3, Q86UL8; [1])?
Answer: below the threshold

Question: And the pKd (MAGI2_5, Q86UL8; [1])?
Answer: 4.36

Question: What about the pKd (MAGI3_2, Q5TCQ9; [1]) of the same binder?
Answer: below the threshold

Question: And the pKd (MAST1, Q9Y2H9; [1])?
Answer: below the threshold

Question: And the pKd (MAST2, Q6P0Q8; [1])?
Answer: 4.25

Question: What about the pKd (NHERF2_2, Q15599; [1]) of the same binder?
Answer: below the threshold

Question: What about the pKd (NHERF4_1, Q86UT5-2; [1]) of the same binder?
Answer: below the threshold

Question: What about the pKd (PDLIM1, O00151; [1]) of the same binder?
Answer: below the threshold

Question: And the pKd (PTPN3, P26045; [1])?
Answer: below the threshold

Question: And the pKd (SCRIB_1, Q14160; [1])?
Answer: below the threshold

Question: What about the pKd (SCRIB_2, Q14160; [1]) of the same binder?
Answer: below the threshold

Question: And the pKd (SCRIB_3, Q14160; [1])?
Answer: below the threshold

Question: What about the pKd (SNTG2, Q9NY99; [1]) of the same binder?
Answer: below the threshold

Question: And the pKd (TJP1_2, Q07157; [1])?
Answer: below the threshold

Question: And the pKd (TJP3_3, O95049; [1])?
Answer: below the threshold

Question: For NDPAWDETNL [ARHGEF7, Q14155;Q14155-1], which pKd (AHNAK1, Q09666; [2]) is on record?
Answer: below the threshold

Question: And the pKd (APBA1_1, Q02410; [2])?
Answer: below the threshold

Question: And the pKd (ARHGEF12, Q9NZN5-2)?
Answer: 4.03

Question: What about the pKd (CASK, O14936; [2]) of the same binder?
Answer: below the threshold

Question: What about the pKd (DLG3_3, Q92796) of the same binder?
Answer: below the threshold

Question: What about the pKd (GORASP1, Q9BQQ3; [2]) of the same binder?
Answer: below the threshold

Question: And the pKd (GRIP1_2, Q9Y3R0; [2])?
Answer: below the threshold

Question: And the pKd (GRIP1_7, Q9Y3R0; [2])?
Answer: below the threshold

Question: And the pKd (HTRA2, O43464; [2])?
Answer: below the threshold

Question: What about the pKd (Inadl_8, Q8NI35; [2]) of the same binder?
Answer: below the threshold

Question: And the pKd (LIN7B, Q9HAP6; [2])?
Answer: below the threshold

Question: What about the pKd (LIN7C, Q9NUP9; [2]) of the same binder?
Answer: below the threshold

Question: And the pKd (LNX1_1, Q8TBB1; [2])?
Answer: below the threshold

Question: And the pKd (MAGI2_3, Q86UL8; [2])?
Answer: below the threshold

Question: What about the pKd (MAGI2_5, Q86UL8; [2]) of the same binder?
Answer: below the threshold

Question: What about the pKd (MAGI3_2, Q5TCQ9; [2]) of the same binder?
Answer: below the threshold

Question: What about the pKd (MAST1, Q9Y2H9; [2]) of the same binder?
Answer: 4.92

Question: What about the pKd (MAST2, Q6P0Q8; [2]) of the same binder?
Answer: 5.98

Question: And the pKd (NHERF2_2, Q15599; [2])?
Answer: 4.81

Question: And the pKd (NHERF4_1, Q86UT5-2; [2])?
Answer: below the threshold

Question: What about the pKd (PARD3_3, Q8TEW0) of the same binder?
Answer: 4.16

Question: And the pKd (PDLIM1, O00151; [2])?
Answer: below the threshold

Question: And the pKd (PTPN3, P26045; [2])?
Answer: 4.44

Question: And the pKd (SCRIB_1, Q14160; [2])?
Answer: 5.5

Question: And the pKd (SCRIB_2, Q14160; [2])?
Answer: 4.68

Question: What about the pKd (SCRIB_3, Q14160; [2]) of the same binder?
Answer: 5.08

Question: And the pKd (SNTG2, Q9NY99; [2])?
Answer: 4.22

Question: And the pKd (SNX27, Q96L92)?
Answer: 5.66

Question: And the pKd (TJP1_2, Q07157; [2])?
Answer: below the threshold

Question: What about the pKd (TJP3_3, O95049; [2]) of the same binder?
Answer: below the threshold

Question: What does the source list for EMDRRPATVV [PLCB4, Q15147]?
Answer: pKd (AHNAK1, Q09666; [2]): below the threshold; pKd (APBA1_1, Q02410; [2]): below the threshold; pKd (ARHGEF12, Q9NZN5-2): 4.53; pKd (CASK, O14936; [2]): below the threshold; pKd (DLG3_3, Q92796): 3.78; pKd (GORASP1, Q9BQQ3; [2]): 4.06; pKd (GRIP1_2, Q9Y3R0; [2]): 3.72; pKd (GRIP1_7, Q9Y3R0; [2]): below the threshold; pKd (HTRA2, O43464; [2]): below the threshold; pKd (LIN7B, Q9HAP6; [2]): below the threshold; pKd (LIN7C, Q9NUP9; [2]): below the threshold; pKd (LNX1_1, Q8TBB1; [2]): 4.01; pKd (MAGI2_3, Q86UL8; [2]): below the threshold; pKd (MAGI2_5, Q86UL8; [2]): below the threshold; pKd (MAGI3_2, Q5TCQ9; [2]): 4.65; pKd (MAST1, Q9Y2H9; [2]): 4.48; pKd (MAST2, Q6P0Q8; [2]): 3.89; pKd (NHERF2_2, Q15599; [2]): below the threshold; pKd (NHERF4_1, Q86UT5-2; [2]): below the threshold; pKd (PARD3_3, Q8TEW0): below the threshold; pKd (PDLIM1, O00151; [2]): below the threshold; pKd (PTPN3, P26045; [2]): below the threshold; pKd (SCRIB_1, Q14160; [2]): 3.84; pKd (SCRIB_2, Q14160; [2]): below the threshold; pKd (SCRIB_3, Q14160; [2]): 4.1; pKd (SNTG2, Q9NY99; [2]): 3.71; pKd (SNX27, Q96L92): below the threshold; pKd (TJP1_2, Q07157; [2]): below the threshold; pKd (TJP3_3, O95049; [2]): below the threshold
